Results: patent US20250042957A1 (Molecular Partners, published 2025)
Positions count from the first letter of the chain named. Where two headings read alike, the source gives them in different places.

Experiments:
scCD3εγ [1] = molecular target: T1, scCD3εγ; assay: ELISA: plate-bound biotinylated scCD3εγ, His-tagged construct titrated in presence of 100 nM soluble VEGF
T1 chain 1: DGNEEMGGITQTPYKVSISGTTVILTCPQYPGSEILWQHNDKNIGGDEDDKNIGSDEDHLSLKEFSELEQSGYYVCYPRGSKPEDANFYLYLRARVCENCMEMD
T1 chain 2: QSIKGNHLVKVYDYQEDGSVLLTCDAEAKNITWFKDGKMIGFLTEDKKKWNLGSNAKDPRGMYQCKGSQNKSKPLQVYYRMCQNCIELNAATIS
Experimental: (§1) The difference in binding of Switchdrug DARPins to scCD3εγ in presence and absence of VEGF was assessed. […] Said Switchdrug DARPins were mixed with a constant concentration of VEGF (100 nM) and tested for binding to scCD3εγ. […] The difference in EC50 of a construct in presence and absence of VEGF can be referred to as the “activation window”.
(§2) Switchdrug DARPins that were mixed with VEGF were titrated and pre-incubated for 1 day with VEGF in order to establish the thermodynamic equilibrium. These samples were loaded on the ELISA plate, incubated and washed, before the bound Switchdrug DARPins were detected as described above.

scCD3εγ [2] = molecular target: T1, scCD3εγ; assay: as above
Experimental: as §1, §2

VEGF165 = molecular target: T2, VEGF165 (UniProt P15692-4 27-191, biotinylated in the ELISA of Example 4 (site not stated)); assay: ELISA: plate-bound biotinylated VEGF165, His-tagged construct titrated, no soluble VEGF, anti-His-HRP detection
T2 construct: also called biotinylated VEGF165; soluble VEGF

scCD3εγ [3] = molecular target: T1, scCD3εγ; assay: ELISA: plate-bound biotinylated scCD3εγ, His-tagged construct titrated, no VEGF
Experimental: as §1, §2

scCD3εγ [4] = molecular target: T1, scCD3εγ; assay: ELISA: plate-bound biotinylated scCD3εγ, His-tagged construct titrated without and with 100 nM soluble VEGF
Experimental: as §1, §2

[5] = molecular target: T3, Aminoglycoside phosphotransferase (APH) (Enterococcus faecalis (Streptococcus …, UniProt P0A3Y5 2-264)); assay: ELISA on APH, DARPin titrated
T3 chain: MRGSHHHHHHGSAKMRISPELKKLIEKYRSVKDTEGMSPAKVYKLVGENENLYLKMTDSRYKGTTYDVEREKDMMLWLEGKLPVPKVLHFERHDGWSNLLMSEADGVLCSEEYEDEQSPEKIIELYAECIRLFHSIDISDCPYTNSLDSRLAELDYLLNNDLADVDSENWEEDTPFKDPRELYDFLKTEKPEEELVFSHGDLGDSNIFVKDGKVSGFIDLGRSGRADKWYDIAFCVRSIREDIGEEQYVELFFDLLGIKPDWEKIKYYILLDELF

[6] = molecular target: Maltose binding protein (MBP) (E. coli); assay: ELISA on MBP, DARPin titrated
[7] = molecular target: T3, Aminoglycoside phosphotransferase (APH)
scCD3εγ [8] = molecular target: T1, scCD3εγ; assay: ELISA: plate-bound biotinylated scCD3εγ, His-tagged construct titrated in presence of 100 nM soluble VEGF
Experimental: as §1, §2

scCD3εγ [9] = molecular target: T1, scCD3εγ; assay: ELISA: plate-bound biotinylated scCD3εγ, His-tagged construct titrated without and with 100 nM soluble VEGF
Experimental: as §1, §2

scCD3εγ [10] = molecular target: T1, scCD3εγ; assay: ELISA: plate-bound biotinylated scCD3εγ, His-tagged construct titrated, no VEGF
Experimental: as §2

scCD3εγ [11] = molecular target: T1, scCD3εγ; assay: as above
Experimental: as §1, §2

scCD3εγ [12] = molecular target: T1, scCD3εγ; assay: ELISA: plate-bound biotinylated scCD3εγ, His-tagged construct titrated without and with 100 nM soluble VEGF
Experimental: as §1, §2

scCD3εγ [13] = molecular target: T1, scCD3εγ; assay: ELISA: plate-bound biotinylated scCD3εγ, His-tagged construct titrated in presence of 100 nM soluble VEGF
Experimental: as §1, §2

scCD3εγ [14] = molecular target: T1, scCD3εγ; assay: ELISA: plate-bound biotinylated scCD3εγ, His-tagged construct titrated without and with 100 nM soluble VEGF
Experimental: as §1, §2

T2 sequence (P15692 other isoform, or with tags, fused parts or gaps limits assumed): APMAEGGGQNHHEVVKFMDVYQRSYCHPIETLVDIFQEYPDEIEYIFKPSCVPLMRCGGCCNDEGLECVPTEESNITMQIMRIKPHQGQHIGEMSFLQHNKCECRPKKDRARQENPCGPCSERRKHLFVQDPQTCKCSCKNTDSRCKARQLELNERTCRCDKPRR

B1: Switchdrug DARPin 18-3 (designed binder)
chain: MRGSHHHHHHGSDLDKKLLEAARAGQDDEVRILLKAGADVNAKDSTGWTPLHLAAPWGHPEIVEVLLKAGADVNAKDFQGWTPLHLAAAAGHLEIVEVLLKAGADVNAKDVYGWTPLHIAAASGHLEIVEVLLKAGADVNAKDWLGWTPLHLAASHGHLEIVEVLLKAGADVNAQDKSGKTPADLAARAGHQDIAEVLQKAAGSPTPTPTTPTPTPTTPTPTPTGSDLGKKLLEAARAGQDDEVRELLKAGADVNAKDKDGYTPLHLAAREGHLEIVEVLLKAGADVNAKDKDGYTPLHLAAREGHLEIVEVLLKAGADVNAQDKSGKTPADLAADAGHEDIAEVLQKAAGSPTPTPTTPTPTPTTPTPTPTGSDLGQKLLEAAWAGQDDEVRELLKAGADVNAKNSRGWTPLHTAAQTGHLEIFEVLLKAGADVNAKNDKRVTPLHLAAALGHLEIVEVLLKAGADVNARDSWGTTPADLAAKYGHQDIAEVLQKAA
notes: also called 2-in-1 DARPin18 in Format 3
- EC50 (read off the curve) (scCD3εγ [1]): ~90 nM

B2: Switchdrug DARPin 18-A (designed binder)
chain: MRGSHHHHHHGSDLGKKLLQAARAGQLDEVRELLKAGADVNAKDQYGRTPLHLAAIKGHLEIVEVLLKAGADVNAKDSLGYTPLHLAAVEGPLEIVEVLLKAGADVNAKDAYGQTPLHIAAAWGHLEIVEVLLKAVADVNAQDKSGKTPADLAARAGHQDIAEVLQKAAGSPTPTPTTPTPTPTTPTPTPTGSDLGQKLLEAAWAGQDDEVRELLKAGADVNAKNSRGWTPLHTAAQTGHLEIFEVLLKAGADVNAKNDKRVTPLHLAAALGHLEIVEVLLKAGADVNARDSWGTTPADLAAKYGHQDIAEVLQKAAGSPTPTPTTPTPTPTTPTPTPTGSDLDKKLLEAARAGQDDEVRILLKAGADVNAKDSTGWTPLHLAAPWGHPEIVEVLLKAGADVNAKDFQGWTPLHLAAAAGHLEIVEVLLKAGADVNAKDVYGWTPLHIAAASGHLEIVEVLLKAGADVNAKDWLGWTPLHLAASHGHLEIVEVLLKAGADVNAQDKSGKTPADLAARAGHQDIAEVLQKAA
notes: also called 2-in-1 DARPin18 in Format A
- EC50 (read off the curve) (scCD3εγ [2]): ~90 nM
- EC50 (read off the curve) (VEGF165): ~90 nM
- EC50 (read off the curve) (scCD3εγ [3]): ~200 nM
- shift in EC50 upon addition of 100 nM VEGF (scCD3εγ [4]): ~2 fold

B3: 2-in-1 DARPin 21 (SEQ ID NO: 90) (designed binder)
chain: DLGKKLLEAARAGQDDEVRILMANGADVNANDWFGITPLHLVVNNGHLEIIEVLLKYAADVNASDKSGWTPLHLAAYRGHLEIVEVLLKYGADVNAMDYQGYTPLHLAAEDGHLEIVEVLLKYGADVNAKDKFGKTPLHIAARAGHLEIVEVLLKAGADVNAADNTGTTPLHLAAYSGHLEIVEVLLKHGADVDASDVFGYTPLHLAAYWGHLEIVEVLLKNGADVNAMDSDGMTPLHLAAKWGYLEIVEVLLKHGADVNAQDKFGKTAFDISIDNGNEDLAEILQKAA
- EC50 (read off the curve) [5]: ~20 nM
- EC50 (read off the curve) [6]: ~100 nM
- Kd [7]: 66.9 nM

B4: 2-in-1 DARPin 22 (SEQ ID NO: 91) (designed binder)
chain: B3 chain with K135R, A144N
- EC50 (read off the curve) [5]: ~10 nM
- Kd [7]: 52.6 nM

B5: Parent DARPin no 2 (SEQ ID NO: 87) (designed binder)
chain: DLGKKLLEAARAGQDDEVRILMANGADVNANDWFGITPLHLVVNNGHLEIIEVLLKYAADVNASDKSGWTPLHLAAYRGHLEIVEVLLKYGADVNAMDYQGYTPLHLAAEDGHLEIVEVLLKYGADVNAQDKFGKTAFDISIDNGNEDLAEILQKLN
- Kd [7]: 147 nM

B6: Switchdrug DARPin 18-B (designed binder)
chain: MRGSHHHHHHGSDLDKKLLEAARAGQDDEVRILLKAGADVNAKDSTGWTPLHLAAPWGHPEIVEVLLKAGADVNAKDFQGWTPLHLAAAAGHLEIVEVLLKAGADVNAKDVYGWTPLHIAAASGHLEIVEVLLKAGADVNAKDWLGWTPLHLAASHGHLEIVEVLLKAGADVNAQDKSGKTPADLAARAGHQDIAEVLQKAAGSPTPTPTTPTPTPTTPTPTPTGSDLGKKLLQAARAGQLDEVRELLKAGADVNAKDQYGRTPLHLAAIKGHLEIVEVLLKAGADVNAKDSLGYTPLHLAAVEGPLEIVEVLLKAGADVNAKDAYGQTPLHIAAAWGHLEIVEVLLKAVADVNAQDKSGKTPADLAARAGHQDIAEVLQKAAGSPTPTPTTPTPTPTTPTPTPTGSDLGQKLLEAAWAGQDDEVRELLKAGADVNAKNSRGWTPLHTAAQTGHLEIFEVLLKAGADVNAKNDKRVTPLHLAAALGHLEIVEVLLKAGADVNARDSWGTTPADLAAKYGHQDIAEVLQKAA
notes: also called 2-in-1 DARPin18 in Format B
- EC50 (read off the curve) (scCD3εγ [8]): ~50 nM
- EC50 (read off the curve) (VEGF165): ~20 nM
- shift in EC50 upon addition of 100 nM VEGF (scCD3εγ [9]): ~19 fold

B7: Switchdrug DARPin 17-1 (designed binder)
chain: MRGSHHHHHHGSDLGQKLLEAAWAGQDDEVRELLKAGADVNAKNSRGWTPLHTAAQTGHLEIFEVLLKAGADVNAKNDKRVTPLHLAAALGHLEIVEVLLKAGADVNARDSWGTTPADLAAKYGHQDIAEVLQKAAGSPTPTPTTPTPTPTTPTPTPTGSDLGKKLLQAARAGQLDEVRELLKAGADVNAKDSTGWTPLHLAAPWGHPEIVEVLLKAGADVNAKDFQGWTPLHLAAAAGHLEIVEVLLKAGADVNAKDWLGWTPLHLAASHGHLEIVEVLLKAGADVNAQDKSGKTPADLAARAGHQDIAEVLQKAA
notes: also called 2-in-1 DARPin17 in Format 1
- EC50 (read off the curve) (scCD3εγ [10]): ~50 nM
- EC50 (read off the curve) (scCD3εγ [11]): ~70 nM
- shift in EC50 upon addition of 100 nM VEGF (scCD3εγ [12]): ~27 fold
- EC50 (read off the curve) (scCD3εγ [13]): ~3 nM

B8: Switchdrug DARPin 15-3 (designed binder)
chain: MRGSHHHHHHGSDLDKKLLEAARAGQDDEVRILLKAGADVNAKDSTGWTPLHLAAPWGHPEIVEVLLKAGADVNAKDFQGWTPLHLAAAAGHLEIVEVLLKAGADVNAKDWLGWTPLHLAASHGHLEIVEVLLKAGADVNAQDKSGKTPADLAARAGHQDIAEVLQKAAGSPTPTPTTPTPTPTTPTPTPTGSDLGKKLLEAARAGQDDEVRELLKAGADVNAKDKDGYTPLHLAAREGHLEIVEVLLKAGADVNAKDKDGYTPLHLAAREGHLEIVEVLLKAGADVNAQDKSGKTPADLAADAGHEDIAEVLQKAAGSPTPTPTTPTPTPTTPTPTPTGSDLGQKLLEAAWAGQDDEVRELLKAGADVNAKNSRGWTPLHTAAQTGHLEIFEVLLKAGADVNAKNDKRVTPLHLAAALGHLEIVEVLLKAGADVNARDSWGTTPADLAAKYGHQDIAEVLQKAA
notes: also called 2-in-1 DARPin15 in Format 3
- EC50 (read off the curve) (scCD3εγ [1]): ~8 nM
- shift in EC50 upon addition of 100 nM VEGF (scCD3εγ [14]): ~54 fold

B9: Switchdrug DARPin 17-3 (designed binder)
chain: B8 chain with D15G, E20Q, D27L, I32E
notes: also called 2-in-1 DARPin17 in Format 3
- EC50 (read off the curve) (scCD3εγ [1]): ~3 nM
- shift in EC50 upon addition of 100 nM VEGF (scCD3εγ [14]): ~100 fold

B10: Switchdrug DARPin 17-A (designed binder)
chain: MRGSHHHHHHGSDLGKKLLQAARAGQLDEVRELLKAGADVNAKDQYGRTPLHLAAIKGHLEIVEVLLKAGADVNAKDSLGYTPLHLAAVEGPLEIVEVLLKAGADVNAKDAYGQTPLHIAAAWGHLEIVEVLLKAVADVNAQDKSGKTPADLAARAGHQDIAEVLQKAAGSPTPTPTTPTPTPTTPTPTPTGSDLGQKLLEAAWAGQDDEVRELLKAGADVNAKNSRGWTPLHTAAQTGHLEIFEVLLKAGADVNAKNDKRVTPLHLAAALGHLEIVEVLLKAGADVNARDSWGTTPADLAAKYGHQDIAEVLQKAAGSPTPTPTTPTPTPTTPTPTPTGSDLGKKLLQAARAGQLDEVRELLKAGADVNAKDSTGWTPLHLAAPWGHPEIVEVLLKAGADVNAKDFQGWTPLHLAAAAGHLEIVEVLLKAGADVNAKDWLGWTPLHLAASHGHLEIVEVLLKAGADVNAQDKSGKTPADLAARAGHQDIAEVLQKAA
notes: also called 2-in-1 DARPin17 in Format A
- EC50 (read off the curve) (VEGF165): ~40 nM
- shift in EC50 upon addition of 100 nM VEGF (scCD3εγ [4]): ~90 fold
